Source: patent US7998460B2, “Prevention of deficits in neurogenesis with anti-inflammatory agents” (The Board of Trustees of the Leland Stanford Junior …, priority 2003, dated 2011)

What was measured:
Type in all cases: cell-based, rat
[1] = test system: adult hippocampus-derived neural precursor cells; test: In vitro neuronal differentiation (doublecortin) of hippocampal neural progenitor cells, 60 hours; details: 60 hours
Source text: Neuroinflammation could inhibit neurogenesis by a variety of mechanisms, including stimulation of the HPA axis with subsequent elevation of gluccocorticoids, alterations in the relationships between progenitor cells and cells of the neuro-vasculature, or direct effects of activated microglia on the precursor cells. To determine the extent to which microglial activation might directly affect neural stem/progenitor cells, microglia were stimulated in vitro with LPS. LPS is a potent activator of microglia and up-regulates the elaboration of pro-inflammatory cytokines, including IL-6 and TNF-α. LPS-stimulated or resting microglia were then co-cultured with normal neural stem cells from the hippocampus under conditions that typically stimulate the differentiation of 30 to 40% of the progenitor cells into immature Dcx-expressing neurons (normalized to a value of 1 in FIG. 2A, control). Neurogenesis in the presence of microglia was assessed as the increase or decrease in Dcx-expressing cells relative to control. Co-culture with activated, but not resting, microglia decreased in vitro neurogenesis to approximately half of control levels (FIG. 2A). LPS added directly to precursor cells had no effect on neurogenesis.
To determine if this effect was due to soluble factors or due to cell-cell contact, hippocampal precursor cells were differentiated in the presence of media pre-conditioned by resting or activated microglia.
Activated microglia produce the potent pro-inflammatory cytokines interleukin-1β (IL-1β), tumor necrosis factor-α (TNF-α), interferon-γ (INF-γ) and interleukin-6 (IL-6). Progenitor cells were allowed to differentiate in the presence of each cytokine and the relative expression of Dcx was scored after 60 hours. […] Addition of neutralizing anti-IL-6 antibody to CM from activated microglia was able to fully restore in vitro neurogenesis (FIG. 2A). This implicated IL-6 as a key inhibitor of neurogenesis in microglial CM. […] In contrast to neurogenesis, gliogenesis was unaffected by IL-6 exposure as indicated by the lack of change in the number of cells expressing the astrocyte (glial fibrillary acidic protein, GFAP) or early oligodendrocyte (NG2) markers relative to control cultures (FIG. 2E). The hippocampal precursors used in this study do express the IL-6 receptor, as confirmed by RT-PCR (FIG. 5).
Progenitor Cell Culture Adult hippocampus-derived neural precursor cells were isolated from adult rat hippocampus and cultured as previously described. Briefly, adult female Fisher-344 rats were deeply anesthetized with sodium pentobarbital and were dissected immediately. Hippocampi were enzymatically dissociated with papain (2.5 U/ml; Worthington, Freehold, N.J.)-dispase II (1 U/ml; Boehringer Mannheim, Indianapolis, Ind.)-DNase I (250 U/ml, Worthington) solution. Digested tissue was then washed with DMEM-10% fetal calf serum (FCS) and subsequently mixed with PBS-equilibrated Percoll solution to a final concentration of 35% Percoll. The Percoll solution was made by mixing nine parts of Percoll (Amersham Pharmacia Biotech, Uppsala, Sweden) with one part of 10× PBS. The cell suspension was then fractionated by centrifugation for 10 min at 1000×gravity. Floating myelin and tissue debris were discarded and the cell pellet re-suspended in 65% Percoll solution and fractionated again by centrifugation for 10 min at 1000×g. The floating neural precursors were collected, washed free of Percoll, and plated onto poly-L-ornithine/laminin-coated dishes in DMEM/F12 (1:1) containing 10% FCS medium for 24 hrs; then medium was replaced with serum-free growth medium consisting of DMEM/F12 (1:1) supplemented with N2 supplement (Life Technologies, Gaithersburg, Md.) and 20 ng/ml of human recombinant FGF-2 (Peprotech, Rocky Hill, N.J.). Cell lines were labeled via infection with replication deficient GFP-expressing recombinant retrovirus LZRS-CAMut4GFP. […]

[2] = test system: adult hippocampus-derived neural precursor cells; test: Proliferation (BrdU) and survival (TUNEL) assays in differentiating neural precursor cultures
Description: Proliferation and survival assays BrdU was added to the culture media from hour 24 to hour 48 of the 60 hour paradigm. Immunocytochemistry and confocal microscopy was then used to determine the fraction of GFP+ cells that labeled with BrdU, TUNEL, or type III β-tubulin or doublecortin. TUNEL staining was performed with Apoptag Red (Serologicals, Norcross, Ga.). The fraction of total (DAPI+) nuclei that were TUNEL+ were determined, as well as the fraction of doublecortin positive cells that were also TUNEL+.

Hes1 mRNA = test: Real-time quantitative RT-PCR of Hes1 in neural precursors; details: 60 hours exposure
Source text: Signaling via gp130, the co-receptor of the IL-6 receptor, stimulates the Notch1 pathway, resulting in an increase in expression of the mammalian homolog of hairy-enhancer-of-split, Hes 1, transcription factor and antagonism of pro-neural basic helix-loop-helix (bHLH) genes and hippocampal neurogenesis during development. To determine if IL-6 treatment of adult stem cells leads to an increase in Hes 1 consistent with the reduction in neuronal cell fate, “real-time” quantitative RT-PCR was performed on total RNA extracted from neural precursors exposed for 60 hours to activated microglial CM or IL-6. Both CM and IL-6 caused a dramatic increase in Hes1 mRNA expression (3.2- and 7.7-fold increase respectively, relative to control).
Total RNA isolation, cDNA synthesis, and SYBR Green real-time quantitative RT-PCR. […] Quantitative SYBR Green real time PCR was carried out as described previously. […] Quantitative RT-PCR was performed on ABI 5700 PCR instrument (PerkinElmer Life Sciences) by using 3-stage program parameters provided by the manufacturer as follows; 2 min at 50° C., 10 min at 95° C., and then 40 cycles of 15 s at 95° C. and 1 min at 60° C. […] Each sample was tested in five copies with quantitative PCR, and samples obtained from three independent experiments were used to calculate the means and standard deviations. […]

B1: IL-6: recombinant rat interleukin-6 (protein)
chain: FPTSQVRRGDFTEDTTPNRPVYTTSQVGGLITHVLWEIVEMRKELCNGNSDCMNNDDALAENNLKLPEIQRNDGCYQTGYNQEICLLKISSGLLEYHSYLEYMKNNLKDNKKDKARVLQRDTETLIHIFNQEVKDLHKIVLPTPISNALLTDKLESQKEWLRTKTIQFILKSLEEFLKVTLRSTRQT
gliogenesis (cells expressing GFAP or NG2 relative to control) ([1]; IL-6 50 ng/ml): unaffected
decrease of in vitro neurogenesis (relative expression of Dcx) ([1]; recombinant IL-6 50 ng/ml or TNF-α 20 ng/ml): approximately 50%
fraction of TUNEL-positive apoptotic cells ([2]; mean+/-s.e.m., differentiating culture, IL-6 50 ng/ml): 0.068+/−0.005
fraction of TUNEL-positive cells that co-labeled with doublecortin ([2]; mean+/-sem): 0.83+/−0.02
mitotic index (fraction of cells labeled with BrdU in 24 hours) ([2]; stem cell cultures): 95+/−1.7%
BrdU labeling within the neuronal progeny ([2]; subset of spontaneously forming immature neurons): 82+/−1.6%
increase in Hes1 mRNA expression relative to control (Hes1 mRNA): 7.7 fold
